System: T1, Rob (Staphylococcus aureus FK300 (rsbU-repaired NCTC8325-4 derivative)), ORF:92c4d64d
T1 sequence: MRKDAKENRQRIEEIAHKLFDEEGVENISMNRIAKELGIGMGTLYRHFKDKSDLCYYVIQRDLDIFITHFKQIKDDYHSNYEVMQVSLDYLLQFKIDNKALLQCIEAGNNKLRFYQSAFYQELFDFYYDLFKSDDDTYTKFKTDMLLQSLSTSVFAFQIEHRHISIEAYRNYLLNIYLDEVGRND
Test: EMSA
Settings: 10 mM HEPES pH 8.0, 60 mM KCl, 4 mM MgCl2, 0.1 mM EDTA, 0.1 mg/ml BSA, 0.25 mM DTT, 5% glycerol, 1 ug salmon sperm DNA and 1 ug poly(dI-dC) per 20 ul, room …

Sequence	binding
ACAAATATTTCCGTTTAATTATAACAACAATCTATTGCAAATTAAAATACTATCAATTACCATATGGCTTACAACCTAACTAACGAAAGGTAGGTAAAGGAATTGCAA (double strand) [SHORT-1 (108 bp)]	binds
TTGCAATTCCTTTACCTACCTTTCGTTAGTTAGGTTGTAAGCCATATGGTAATTGATAGTATTTTAATTTGCAATAGATT (double strand) [SHORT-2]	no binding

Source: paper PMC5285506
